T1: IL-20R1 triple mutant M3 (UniProt Q9UHF4 29-245)
T1 construct: range 29-245; also called IL-20R1 site 3 mutant
T1 sequence (looked up): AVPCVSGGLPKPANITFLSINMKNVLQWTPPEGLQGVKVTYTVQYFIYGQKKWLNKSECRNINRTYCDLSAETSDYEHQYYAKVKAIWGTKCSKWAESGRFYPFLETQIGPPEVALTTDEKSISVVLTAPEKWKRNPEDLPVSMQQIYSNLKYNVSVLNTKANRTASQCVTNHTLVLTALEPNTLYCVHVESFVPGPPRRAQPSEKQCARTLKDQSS

T2: IL-19 (human, UniProt Q9UHD0 25-177)
T2 construct: also called Interleukin-19; IL-19a
T2 sequence: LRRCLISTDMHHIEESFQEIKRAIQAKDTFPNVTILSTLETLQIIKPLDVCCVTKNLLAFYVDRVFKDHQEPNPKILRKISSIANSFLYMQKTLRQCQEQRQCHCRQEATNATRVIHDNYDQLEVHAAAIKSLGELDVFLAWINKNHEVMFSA

T3: IL-22 (Homo sapiens (Human), UniProt Q9GZX6 35-179, limits assumed)
T3 construct: also called IL-22 wt
T3 sequence: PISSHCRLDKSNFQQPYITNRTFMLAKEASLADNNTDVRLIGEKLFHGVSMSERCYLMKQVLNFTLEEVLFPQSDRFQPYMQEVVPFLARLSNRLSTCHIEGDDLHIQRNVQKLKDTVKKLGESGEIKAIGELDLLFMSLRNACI

B1: IL-20 (ligand)
chain: MLKTLNLGSCVIATNLQEIRNGFSEIRGSVQAKDGNIDIRILRRTESLQDTKPANRCCLLRHLLRLYLDRVFKNYQTPDHYTLRKISSLANSFLTIKKDLRLCHAHMTCHCGEEAMKKYSQILSHFEKLEPQAAVVKALGELDILLQWMEETE
notes: The crystal model holds residues 24-176; also called Interleukin-20; IL-20b
B2: IL22R1ddq/IL20R2-FCkh (Fc fusion)
chain 1: AHAPEDPSDLLQHVKFQSSNFENILTWDSGPEGTPDTVYSIEYKTYGERDWVAKKGCQRITRKSCDLTVETGDLQELYYARVTAVSAGGRSATKMTDRFSSLQHTTLKPPDVTCISKVRSIQMIVHPTPTPIRAGDGHRLTLEDIFHDLFYHLELQVNRTYQMHLGGKQREYEFFGLTPDTEFLGTIMICVPTWAKESAPYMCRVKTLPDRTWTYSGSGGGGPSVFIFPPKIKDVLMISLSPIVTCVVVDVSEDDPDVQISWFVNNVEVHTAQTQTHREDYNSTLRVVSALPIQHQDWMSGKEFKCKVNNKDLPAPIERTISKPKGSVRAPQVYVLPPPCEEMTKKQVTLYCMVTDFMPEDIYVEWTNNGKTELNYKNTEPVLDSDGSYFMYSKLRVEKKNWVERNSYSCSVVHEGLHNHHTTKSFSRTPGKGLEASGGLNDIFEAQKIEWHEGTGHHHHHH
chain 2: DEVAILPAPQQLSVLSTNMKHLLMWSPVIAPGETVYYSVEYQGEYESLYTSHIWIPSSWCSLTEGPECDVTDDITATVPYNLRVRATLGSQTSAWSILKHPFNRQSTILTRPGMEITKDGFHLVIELEDLGPQFEFLVAYWRREPGAEEHVKMVRSGGIPVHLETMEPGAAYCVKAQTFVKAIGRYSAFSQTECVEVQGEAGSGGGGPSVFIFPPKIKDVLMISLSPIVTCVVVDVSEDDPDVQISWFVNNVEVHTAQTQTHREDYNSTLRVVSALPIQHQDWMSGKEFKCKVNNKDLPAPIERTISKPKGSVRAPQVYVLPPPEEEMTKKQVTLTCMVTDFMPEDIYVEWTNNGKTELNYKNTEPVLDSDGSYFMTSKLRVEKKNWVERNSYSCSVVHEGLHNHHTTKSFGGCGTPASGGLNDIFEAQKIEWHE
notes: also called IL-22R1/IL-20R2-FCkh; soluble IL-22R1/IL-20R2 receptor heterodimer

Columns and labels:
IL22R1ddq/IL20R2-FCkh = target: B2; assay: SPR with the IL-22R1/IL-20R2-FCkh heterodimer
IL-20R1 triple mutant M3 = target: T1, IL-20R1 triple mutant M3; assay: SPR, IL-20 + M3 co-injected over an IL-20R2 chip
Description: FIGS. 9A-9D show the IL-20 site 3 interface is essential and distinct from other complexes. FIG. 9A is a ribbon diagram showing the site 3 interface between IL-20R1 and IL-20R2. FIG. 9B is a graph showing the importance of the site 3 interface in ternary complex formation. SPR sensograms obtained by injecting cytokines (IL-19 or IL-20, at 250 nM) and/or receptors (IL-20R1 or M3, at 425 nM), as labeled on the figure, over an IL-20R2 coupled biacore chip. Injection of IL-20+IL-20R1 results in a large response consistent with ternary complex formation. However, injection of IL-20+M3, an IL-20R1 site 3 mutant with S190^IL-20R1, W194^IL-20R1, and W207^IL-20R1 mutated to alanine drastically reduces binding due to disruption of ternary complex formation. Similar results are observed for complex formation by IL-19. FIG. 9C is a ribbon diagram of the superposition of the D2 domains of GHR site 1, IL-6R, and IL-20R1. The positions of the D2 domains of GHR site2, GP130, and IL-20R2 are shown, along with a schematic of the differences in their orientations. FIG. 9D is a ribbon diagram showing the putative model of the IL-22/IL-22R1/IL-10R2 complex based on the IL-20 ternary complex structure. […]

IL-19 = target: T2, IL-19; assay: SPR, IL-19 as analyte over IL22R1ddq/IL20R2-FCkh as ligand
IL-20 = target: B1; assay: SPR, IL-20 as analyte over IL22R1ddq/IL20R2-FCkh as ligand
IL-22 = target: T3, IL-22; assay: SPR, IL-22 as analyte over IL22R1ddq/IL20R2-FCkh as ligand

| fold difference in binding affinity against IL-19 (IL22R1ddq/IL20R2-FCkh) [fold] | binding result (IL-20R1 triple mutant M3) | Kd (IL-19) [nM] | Kd (IL-20) [nM] | Kd (IL-22) [nM] | kon (IL-22) [M⁻¹ s⁻¹] | Binder |
| --- | --- | --- | --- | --- | --- | --- |
| 100 | binds | – | – | – | – | B1 |
| – | – | 101 | 0.99 | 5.15 | ~957000 | B2 |

Source: US20150203556A1 (UAB RESEARCH FOUNDATION, published 2015)
